Assay results reported in the DeepSol protein solubility set.

Assay: soluble on expression in E. coli; label from the status in PepcDB or PDB records

Sequence	soluble on expression in E. coli
MIIKGRAHKFGDDVDTDAIIPGPYLRTTDPYELASHCMAGIDENFPKKVKEGDVIVAGENFGCGSSREQAVIAIKYCGIKAVIAKSFARIFYRNAINVGLIPIIANTDEIKDGDIVEIDLDKEEIVITNKNKTIKCETPKGLEREILAAGGLVNYLKKRKLIQSKKGVKT	soluble
MGFHLRNSLALPPDTPAVKVQSAVQYSELAKLLRRGLKASGATLADEDAKTGFAQVQVLSERWGDLPIAIDSQGRAQEYSLRYAAIFTVTTANGAVLVPQQVIELSRDYVSPPVDATGTATEREILADELRKDMSASILRRIDSVVRARLKHGESLESTPTAPLPPAPVQPTTLPESSVPAALPPAPTSGNLEHHHHHH	not soluble
AHHHHHHGSVSKPHGGKLIRRIAAPRTRERILSEQHEYPRVQIDHGRAIDLENIAHGVYSPLKGFLTREDFESVLDYMRLSDDTPWTIPIVLDVGEPTFEGGDAILLYYENPPIARMHVEDIYTYDKKEFAVKVFKTDDPNHLGVARVYSMGKYLVGGGIELLNELPNPFAKYTLRPVETRILFKERGWKTIVAFQTRNVPHLGHEYVQKAALTFVDGLFINPVLGRKKKGDYKDEVIIKAYYLIMKYCSNTTHHAIMRKTSTSSQT	not soluble
GLVNAHTHLEMTPLIGAFSELELTEMLGSGTALFNRLGNGEFEYLVEAGVELAALNFLLGGVTTVNSMDARPAAGAEAFGEAGLRGFFGPAISDLFWDQPVDQQFSRAREFVETYHDTYDGRIRATICPHDDWSCTRQLWERTASLAAEYPDLLVHTHLLELEESNTMARANGGEDSVGLLDDVGLLDDRLVAAHFRLGDEEDIQRTAEADAAVAHCPSVFCYWNPDGETQWTPVPELRAAGVDVGVGIDDHYWHDSYSMFGEARQARLAANLKRSAGQFDSMELIRMLTIEGARALGMGDE	not soluble
MILSVHILDQQTGKPAPGVEVVLEQKKDNGWTQLNTGHTDQDGRIKALWPEKAAAPGDYRVIFKTGQYFESKKLDTFFPEIPVEFHISKTNEHYHVPLLLSQYGYSTYRGS	soluble
MSSDKSIEKNTDTIASEVHEGDNHSNNLGSMEEEIKSTPSDQYEEIAIIPTEPLHSDKELNDKQQSLGHEAPTNVSREEPIGISGDEDTQITEQNVNEQRQETREPSSEIDLNEPLDVEKDVTTDVQAPNGLNIEKEYDAVKENEKVYADTKEVVSSPENREVTGKNSGGEKSSSSKFLDDESGTTTAANANDISISSEVTPERSSENDNNQIHITNEVAAGINLNENKEQKAAIEDGPVTAENLSSETARKVPPIPTQIINEKGDNSSENEVSAIPTTSSPPLPPRQNVATSTSPKLPPRGKQREQPPKTKNAVPPPLEEEMKSEKFRKNFEETKRNSYHHVPLTGSKTAQLESTAEINLIASRYRKTSHHLNKEGEETRESLQEGQSFLKSTFTSFLENLSEYNEVENVNEEDREMFKIDWSFWTQVVNDYATVASNEPENLEAHVTNGIPPQIRGIIWQLMANSKSREMEDIYETLLDTECLHEATIRRDLRRTKFVAEDKMESLYKVIKVYSVYDPDVGYTQGMGFIAAPLLINCENEAESFGLLVGLMKNYGLRELFLPGMPGLMLMLYQFDRLLEEHSPSLYNRLIREGISSTMYATQWFLTFFAYKFPLEFVLRIFDIVFVEGIEVLLKFAVNLMLKNEETLVKLRFDELLDFLKDELFNYYLMGNQDDASVVQMGLSNGNSFKGNDDGTFSYNVDLFVHDAMTGVYITPLTLRRYRGEYVEIHEKEQKKEDHYESLRIQNHQLQREAQKLEHDYSILNKENISAANELIQNRLNMEMLLDEKNDLINTITDIKSQIEEEIRKQNLPNPDASLPKADLREDLERTISRNNEVMRENGQLEERITELQAEIDELININKEQVSTASLLERDSKAKGRKGWTGFKKVFK	soluble
GPGSMLHIDFCIAADAQEALEESGKPNTATVAVPIILEKEVLKLLAPPVCSSDGGFEYDLNATRTLLGAKGATAAYIVVRTAPSTQYVVIYVSDTTSAKNRMLYSTGLSRVVEATPHAQKRTVRISSVSELLPSLFEAESKKVKEALMTESERHHAAIARMEVAPQPVALPGVAVQITTDADDGLSQFAGGAVEVATFKIEAGQLQLDKTVAQLNGNLDQVKSILTDADPRFVLLRYPSPKTQLAEAVMVYVCPPTCSPKIKIQYASSAAAFREQALRHKIQLAHKVETDTTATLADDVRSAFEPFPSADARKTHGRLSSCPPTSWAPKGHSMLI	soluble
GMTEAFPALVRQDDARYAITVGPDLAVGPPGHAYLFGGASMALALDVAAETVGRPVVQGSLQFVSFTPLGSVLDLTVEVLQSGRTLAQARVAGTVDGRLVFHSGISLGMREGFSARQWALAPPVPQPDNCPPCTTLPAQDDNARYLEGIEVREAGGPEVPSGRTRLWLRRKDGAPLDAASLAMFADFLPIALGRATGCSGGGNSLDNSLRITGAAAPGWCLCDMIIPSSASGFAQGQVTLWDQSGRLLATGAQSLLLKG	soluble
MDNHKCVLVIDKALPQGLIANTAAVLTLSLGKLHPELIGADNVNKNGEIHTGITSIPIPILASSSHKIKEIRASLKEEATLVDFSNVAQTTKNYQDYSDKLAATRPEDIEYLGIAIYGTKKIINKHTGNLGLIRLEHHHHHH	soluble
MGSDKIHHHHHHMHVVELRFECFDNTTITAAERAINGLLEAYRANGQVLGREFAVAFNEGEFRVRLLLPEKSSLAKRFNSPWVNYALEELTQAKLLHPREKYIGQDINSEVSSTETPSWQLLYTSYVHMCSPLRNGDTLQPIPLYQIPATFNGDHKRVIKWQTEWQACDELQMAAATKAEFAALDELSQCDSDLFRRGWDLRGRIEYLTKIPTYYYLYRVGGESLAAEQQRPCPRCGNTHWLLETPLLDLFHFRCDNCRIVSNISWDHL	not soluble
MTTEKEMKQIQNEFKERMDEGELLNCMRCGFCLPSCPTYIESGFQETHSPRGRIALMKAVADGMIEPDEDVERSLSLCLGCRACEPVCPSGVKYGQLLEEARDIIHQNKKHSLGERVMRKTAFHELFPHQNRMRSAVSLIGLYQRSGLQTAVRKSGMLRVLPEHLRTMEAVLPDVPKSKDMKHRPRFLPSIGPMKKRVAFFSGCLMDTMFLPTNNATLKLLQLAGCDIVIPPEQACCGALHGHSGEKNTGKELAKQNIAAFEALDVDAVITNAGGCGAFLTEYDHLLKDDPEWSERAAAFVQKLKDFSSVLVELDFHQMDLALETPQVVTYQDSCHLRNVMHTSLEPRQLLKSIKGAEFKEMEKADSCCGSAGIYNIVEVEMSMKILDSKMAAVKATEAILIVTANPGCLLQMKLGIEREGLSGKVRAVHLADLLLEAAGHKTS	not soluble
MANIVITTHWTDGDVLPFIKIGSELRKRGHRVTLITHCYYKNMAKSQGLDFEAWDSPEQHRQMLEDMKEELDPLRNPCALERYKKKYESIEVRLREFKKVIAHCNTTDTVLVAKNRSSVAAYLAAEKLNIPLVCVFMAPSEMLSMVSYEMMLGKLLANELNLLRKELNLAPVKSWLAWQSSPKRQIALWPDWFAEPIEEWPAEVINVGFPLSYNERFDNLPPDLMEDLLGDEPPVVITGGTSKTIRPEFYPLCVETCRLSGRKGILVTRYEELLPKELPDKVKWFRELPLNKIFPYTSAVIHHGGMGTLSGAIAAGVPQLVLPYYLDRPYNALCLKKLGIAEYLPPIKWKPEIMVDALQKITASSFRERCKLFSKKVSLQNTMNEICCLIEETVNNEEFLLKDISLLQTT	not soluble
MGSDKIHHHHHHMRPKILFVVNVDWFFVSHRLPIAVAAQNVGYDVHIACQVTDKKQELEGYGFTVHSISLDRSGTSVLKEFQTMLSIYRLIKKISPALMHMITVKPVIYAGIAARILGVSKVASISGLGFIFIAEGFKSKLLKSLITILYKLALNDGKSRVIFQNDSDKGLFIRRGIISDSNTLLVRGSGVDLDKYQVKPEPESYPVIVLLARLLIDKGVLEFVQAAEILKSKGVPCKMVLAGDTDENPKSVSKNQITDWVNKGIVEYWGYSKDVNSTYANCHIAVLPSYREGLPKSLIEAAACGRAVITTDVPGCRDAITPNKTGLLVPVKSSLELALAIETLCNDSKLRQSLGQEGRQLAEQAFDIKSVIQIHLNLYADLLKGKPSV	not soluble
MADQHPTAQRPIDAHGIIGDMRSAALVDDQGSIDFFCWPEFDSPSIFCSLLDSPAAGIFELAPVLADARRQQIYLPDSNVLQTRWLGTEAVVEVTDLLTIDDDPEQLPLLIRRVRVVSGQATLRLHCAPRLDYLEHHHHHH	not soluble
MNIDELIAIDVHTHAEEPCCGPRDDGYDEFQAGMAKYFKNPAGHKGMLPTVQETAAYYRERKIGCVIFPVDAERETGFRRYENEEVAKIAAENSDIMIPFASIDPAKGKAGAREARRLVREFGVKGFKFHPTMQGFYPNDRMAYPLYEAIAEEGAITLFHTGQTGVGAGLRGGMAMRLKFSNPIHLDDVAVDFPDMPIILAHPSFPWQEEALSVATHKPNVYIDMSGWSPKYFPPILVQYANSLLKHKMLFGSDWPAMTPERWLNDFANISIKDEVRPLILKENARRLLKLLEHHHHHH	not soluble
MSLEELSLYTLRHVLERSAVLYADQPSLSQLGCEPLTFRDLHDHAEHLALWLRDNGVGTGDRVALLAENSPNWGIAYFAITGMGAIAVPILPEFHADAVQHILRHSEAKAVFVSERLFPKLEEGEGIADSLMCISMETFQSIAQGTTRDMLRELKSKGLREFRKLRDKAKRLANMADAAPAEDDVAAIIYTSGTTGHSKGVVLTHRNIVWDADAVKSIVKLGPGDRMLSILPLSHTYECTLGLVLPVLNGAHVHYMDKPPTARALLPAMAQVRPTAMLSVPLVIEKIFKTALLPKLTGSWLKQRLYAIPFVRRKLHALAGRKLLESFGGALRIFCIGGAGIAPDVERFLREANFPYAIGYGLTETAPLVAGSGPASTRLTSTGFTLDGVDIAIDAPDPATGEGEIIVRGPNVMREYYKAPQITASAFTPEGWFRTGDLGKFDADGYLYIKGRLKNVIIGPSGENIYPEEVEAIIHQSPFVLESLVFQQDGRLVARIHLDAARLDESFGDLPALKQREKIDALLETLRNEVNTKVSTFARLAKVIEQTEPFEKTPTHKIKRYLYVEQEGHHHHHH	soluble
LRASEIMNRTLDLQIIMDDLLNLLLKEFKLDLAVIRLVDEKGVLRVRSYSGKGIAGIAGKDWEPEIETYIGEAFLSNRLQFVNDTQYMTKPLTRELMQKEGIKSFAHIPISRKGEPPFGILSVFSRTIVGLFNEPFLNLLESLAGQLAQAVKIVTEMEAKEREREEKERILLENA	soluble
MDERRKRKAKDQLSPYSNPDEENDRHNTAIEPSPSASRKRAKARVGDLGTIADSGPLKGVLSSVNILKPRIRSDRISGLNRCFVNAVQKVVEKESNKSLLYLFRQYEKYYEELNEASD	not soluble
LPIISIDTKQQVIPLVTKEGGKYVKARDNINVDIELRDSPSRSHHLSEKPRIRTKGLISYRGNTSRYFDKKSLKVKFVTNKLKEKKHRLAGMPKESEWVLHGPFLDRTLLRNYLSYNIAGEIMSYAPNVRYCELFVNGEYQGVYLAVENIEQGEQRVPIEKSDKKLHKTPYIVAWDREHKAKQKLDNYVHYTHQSGISALDVKYPGKQRLTSKQLEFINKDINHIEKVLYSYDFSQYPKYIDRESFANYFVINEFFRNVDAGKFSTYLYKDLRDRAKLVVWDFNNAFDNQIEGRVDEADFTLTDAPWFNMLIKDKAFIDLVVHRYKELRKGVLATEYLSNYIDETRHFLGPAIDRNYKKWGYVFDLKNTDPRNYLIPTERNVTSYHKSVEQLKDFIKKRGRWMDRNIETLYQYSAPSKNTNTLLE	not soluble
